From publication PMC5072837
Where “and” joins values, the source holds several entries; their conditions need not be identical. Equal entries are not always repeated.

Legend:
[1] = molecular target: FliD lacking the C-terminal coiled-coil domain (FliD_(1–405)) from the P. aeruginosa PAO1 strain (Pseudomonas aeruginosa PAO1) (UniProt Q9K3C5); assay: cross-linking; about 0.4 mg/mL protein, 20 mM EDC and 20 mM NHS, various time points; silver-stained SDS-PAGE
[2] = molecular target: FliD lacking the N-terminal coiled-coil domain (FliD_(78–474)) from the P. aeruginosa PAO1 strain (Pseudomonas aeruginosa PAO1) (UniProt Q9K3C5); assay: as above
[3] = molecular target: FliD_(1–474(I167C/D253C)) produced by Pseudomonas (complementation strain ΔfliD/fliD_(1–474(I167C/D253C))) (Pseudomonas aeruginosa PAO1) (UniProt Q9K3C5); assay: Western blot after non-reducing SDS-PAGE; flagella sheared off live bacteria, supernatant concentrated; detected with anti-FliD scFv-Fc SH1579-B7
[4] = molecular target: FliD_(78–405) from the P. aeruginosa PAO1 strain, made as a GST fusion and cleaved (Pseudomonas aeruginosa PAO1) (UniProt Q9K3C5); assay: SAXS; 30 mM Tris pH 8.0, 80 mM NaCl; three concentrations of each protein; envelopes by DAMMIF with superimposed crystal structures
[5] = molecular target: FliD_(78–405) from the P. aeruginosa PAO1 strain, made as a GST fusion and cleaved (Pseudomonas aeruginosa PAO1) (UniProt Q9K3C5); assay: cross-linking; about 0.4 mg/mL protein, 20 mM EDC and 20 mM NHS, various time points; silver-stained SDS-PAGE
[6] = molecular target: FliD_(78–405) from the P. aeruginosa PAO1 strain, made as a GST fusion and cleaved (Pseudomonas aeruginosa PAO1) (UniProt Q9K3C5); assay: negative stain EM with class averaging; 2% uranyl acetate, about 3500 particles, class averages in EMAN2
[7] = molecular target: FliD_(78–405) from the P. aeruginosa PAO1 strain, made as a GST fusion and cleaved (Pseudomonas aeruginosa PAO1) (UniProt Q9K3C5); assay: AUC; sedimentation velocity, 20°C, 20 mM sodium citrate, 80 mM NaCl, pH 5.0; 325 μM FliD78–405, 124 μM FliD78–273, 168 μM FliD1–474
[8] = molecular target: FliD_(78–405) from the P. aeruginosa PAO1 strain, made as a GST fusion and cleaved (Pseudomonas aeruginosa PAO1) (UniProt Q9K3C5); assay: AUC; sedimentation velocity, 20°C, 30 mM Tris, 80 mM NaCl, pH 8.0; 295 μM FliD78–405, 124 μM FliD78–273, 168 μM FliD1–474
[9] = molecular target: FliD_(78–405) from the P. aeruginosa PAO1 strain, with N-terminal His6-tag (crystallized construct) (Pseudomonas aeruginosa PAO1) (UniProt Q9K3C5); assay: crystal structure; His6-FliD78–405 crystals grown in 0.8 M NaK Tartrate, 0.1 M Hepes pH 7.5; 2.2 Å; P6 space group
[10] = molecular target: full-length FliD_(1–474) from the P. aeruginosa PAO1 strain (Pseudomonas aeruginosa PAO1) (UniProt Q9K3C5); assay: AUC; sedimentation velocity, 4 μM FliD1–474 in 30 mM Tris, 80 mM NaCl, pH 8.0
[11] = molecular target: full-length FliD_(1–474) from the P. aeruginosa PAO1 strain (Pseudomonas aeruginosa PAO1) (UniProt Q9K3C5); assay: cross-linking; about 0.4 mg/mL protein, 20 mM EDC and 20 mM NHS, various time points; silver-stained SDS-PAGE
[12] = molecular target: full-length FliD_(1–474) from the P. aeruginosa PAO1 strain (Pseudomonas aeruginosa PAO1) (UniProt Q9K3C5); assay: AUC; sedimentation velocity, 20°C, 20 mM sodium citrate, 80 mM NaCl, pH 5.0; 325 μM FliD78–405, 124 μM FliD78–273, 168 μM FliD1–474
[13] = molecular target: full-length FliD_(1–474) from the P. aeruginosa PAO1 strain (Pseudomonas aeruginosa PAO1) (UniProt Q9K3C5); assay: AUC; sedimentation velocity, 20°C, 30 mM Tris, 80 mM NaCl, pH 8.0; 295 μM FliD78–405, 124 μM FliD78–273, 168 μM FliD1–474
[14] = molecular target: head domain-only FliD (FliD_(78–273)) from the P. aeruginosa PAO1 strain (Pseudomonas aeruginosa PAO1) (UniProt Q9K3C5); assay: SAXS; 30 mM Tris pH 8.0, 80 mM NaCl; three concentrations of each protein; envelopes by DAMMIF with superimposed crystal structures
[15] = molecular target: head domain-only FliD (FliD_(78–273)) from the P. aeruginosa PAO1 strain (Pseudomonas aeruginosa PAO1) (UniProt Q9K3C5); assay: cross-linking; about 0.4 mg/mL protein, 20 mM EDC and 20 mM NHS, various time points; silver-stained SDS-PAGE
[16] = molecular target: head domain-only FliD (FliD_(78–273)) from the P. aeruginosa PAO1 strain (Pseudomonas aeruginosa PAO1) (UniProt Q9K3C5); assay: AUC; sedimentation velocity, 20°C, 20 mM sodium citrate, 80 mM NaCl, pH 5.0; 325 μM FliD78–405, 124 μM FliD78–273, 168 μM FliD1–474
[17] = molecular target: stable hexameric full-length FliD mutant FliD_(1–474(I167C/D253C)), purified recombinant protein (Pseudomonas aeruginosa PAO1) (UniProt Q9K3C5); assay: SDS-PAGE under non-reducing conditions; purified FliD1–474(I167C/D253C), reducing against non-reducing conditions
[18] = molecular target: stable hexameric full-length FliD mutant FliD_(1–474(I167C/D253C)), purified recombinant protein (Pseudomonas aeruginosa PAO1) (UniProt Q9K3C5); assay: SAXS; 30 mM Tris pH 8.0, 80 mM NaCl; three concentrations of each protein; envelopes by DAMMIF with superimposed crystal structures

Substance: FliD lacking the C-terminal coiled-coil domain (FliD_(1–405)) from the P. aeruginosa PAO1 strain (from UniProt Q9K3C5 1-405) (domain or fragment)
- stoichiometry N [1]: 2

Substance: FliD lacking the N-terminal coiled-coil domain (FliD_(78–474)) from the P. aeruginosa PAO1 strain (from UniProt Q9K3C5 78-474) (domain or fragment)
- stoichiometry N [2]: 2

Substance: FliD_(1–474(I167C/D253C)) produced by Pseudomonas (complementation strain ΔfliD/fliD_(1–474(I167C/D253C))) (from UniProt Q9K3C5 1-474) (natural protein)
- stoichiometry N [3]: 6

Substance: FliD_(78–405) from the P. aeruginosa PAO1 strain, made as a GST fusion and cleaved (from UniProt Q9K3C5 78-405) (domain or fragment)
- stoichiometry N [4]: 12
- stoichiometry N [5]: < 12
- stoichiometry N [6]: 6
- stoichiometry N [7]: 12
- stoichiometry N [8]: 12

Substance: FliD_(78–405) from the P. aeruginosa PAO1 strain, with N-terminal His6-tag (crystallized construct) (from UniProt Q9K3C5 78-405) (domain or fragment)
- stoichiometry N [9]: 6 and 12

Substance: full-length FliD_(1–474) from the P. aeruginosa PAO1 strain (from UniProt Q9K3C5 1-474) (natural protein)
- stoichiometry N [10]: 2
- stoichiometry N [11]: < 6
- stoichiometry N [12]: 4 and 6
- stoichiometry N [13]: 4 and 6

Substance: head domain-only FliD (FliD_(78–273)) from the P. aeruginosa PAO1 strain (from UniProt Q9K3C5 78-273) (domain or fragment)
- stoichiometry N [14]: 2
- stoichiometry N [15]: 2
- stoichiometry N [16]: 2

Substance: stable hexameric full-length FliD mutant FliD_(1–474(I167C/D253C)), purified recombinant protein (from UniProt Q9K3C5 1-474) (natural protein)
- stoichiometry N [17]: 6
- stoichiometry N [18]: 6
